The experiment deals with GST-SVV (UniProt O15392). As to the kind of experiment: native gel or EMSA; 0.5 μg recombinant protein in native sample buffer (no SDS, no β-mercaptoethanol) on a 15% or 6% native polyacrylamide gel; Western blot with anti-SVV or anti-cortactin; monomer and dimer bands. For orientation: Mobility shift assays separate free from complexed probe on a gel.

Our source for the stoichiometry N values is publication PMC4981888.

As usually defined, the stoichiometry N is the number of molecules, sites or subunits per partner or assembly. As to GST-SVV (from UniProt O15392 1-142), the stoichiometry N amounted to 2.
